According to patent US20230212258A1 (MCMASTER UNIVERSITY, published 2023):

Tests used:
Lck = Lck (UniProt P06239 2-509, limits assumed); assay: pull-down from 293TM lysates on Her2 antigen beads, western blot for Lck
Protocol: In FIG. 13A, Her2 antigen was covalently attached to magnetic beads. […] Beads were incubated with cell lysates over night and subsequently washed and western blotted. Lck was detected using an Lck antibody, TACs were detected via Myc antibody. […] Signal was corrected relative to the negative control.

Her2Fc [1] = target: T1, Her2Fc (UniProt P04626 23-652, limits assumed); assay: flow cytometry, transduced T cells incubated with Her2Fc (FIG. 2)
T1 construct: It is printed both as Her2Fc and as FcHer2; also called FcHer2; FcHer2 antigen; not shown: Fc part
Protocol: T-cells had been incubated with Her2Fc, which later was detected via flow cytometry. The presented data was gated on CD8+ lymphocytes. The shown gates were chosen based on the untransduced control.

Her2Fc [2] = target: T1, Her2Fc; assay: flow cytometry, engineered PBMC, NGFR marker and FcHer2 (FIG. 16B)

Chain of Lck (P06239 2-509 limits assumed): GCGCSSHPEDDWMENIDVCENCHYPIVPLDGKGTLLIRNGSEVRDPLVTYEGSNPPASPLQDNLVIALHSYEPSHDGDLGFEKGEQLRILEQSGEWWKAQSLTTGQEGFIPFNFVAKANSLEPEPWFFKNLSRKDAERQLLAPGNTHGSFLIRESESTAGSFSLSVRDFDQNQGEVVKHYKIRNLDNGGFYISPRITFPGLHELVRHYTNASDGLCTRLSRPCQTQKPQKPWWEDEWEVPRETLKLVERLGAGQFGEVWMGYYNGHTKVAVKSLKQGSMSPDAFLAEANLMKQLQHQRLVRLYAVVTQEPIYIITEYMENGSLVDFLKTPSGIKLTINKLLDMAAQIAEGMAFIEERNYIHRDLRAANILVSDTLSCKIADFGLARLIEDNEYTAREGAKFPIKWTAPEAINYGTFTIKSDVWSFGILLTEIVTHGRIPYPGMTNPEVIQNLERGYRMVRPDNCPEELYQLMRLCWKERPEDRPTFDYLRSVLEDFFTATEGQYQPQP

B1: CD4 TAC -cytosol (receptor)
chain: MSRGSDLGKKLLEAARAGQDDEVRILMANGADVNAKDEYGLTPLYLATAHGHLEIVEVLLKNGADVNAVDAIGFTPLHLAAFIGHLEIAEVLLKHGADVNAQDKFGKTAFDISIGNGNEDLAEILQKLNEQKLISEEDLNPGGGGGSGGGGSGGGGSGGGGSGSMDIQMTQTTSSLSASLGDRVTISCRASQDIRNYLNWYQQKPDGTVKLLIYYTSRLHSGVPSKFSGSGSGTDYSLTISNLEQEDIATYFCQQGNTLPWTFAGGTKLEIKGGGGSGGGGSGGGGSGGGGSEVQLQQSGPELVKPGASMKISCKASGYSFTGYTMNWVKQSHGKNLEWMGLINPYKGVSTYNQKFKDKATLTVDKSSSTAYMELLSLTSEDSAVYYCARSGYYGDSDWYFDVWGQGTTLTVFSTSGGGGSLESGQVLLESNIKVLPTWSTPVQPMALIVLGGVAGLLLFIGLGIFF
notes: It was detected through its Myc tag in the pull-down; also called TAC cytosolic deletion variant; cytosolic deletion
Does B1 bind (Lck)?
Result: no binding

B2: N-Darpin Tri-TAC (receptor)
chain: MSRGSDLGKKLLEAARAGQDDEVRILMANGADVNAKDEYGLTPLYLATAHGHLEIVEVLLKNGADVNAVDAIGFTPLHLAAFIGHLEIAEVLLKHGADVNAQDKFGKTAFDISIGNGNEDLAEILQKLNEQKLISEEDLNPGGGGGSGGGGSGGGGSGGGGSGSMDIQMTQTTSSLSASLGDRVTISCRASQDIRNYLNWYQQKPDGTVKLLIYYTSRLHSGVPSKFSGSGSGTDYSLTISNLEQEDIATYFCQQGNTLPWTFAGGTKLEIKGGGGSGGGGSGGGGSGGGGSEVQLQQSGPELVKPGASMKISCKASGYSFTGYTMNWVKQSHGKNLEWMGLINPYKGVSTYNQKFKDKATLTVDKSSSTAYMELLSLTSEDSAVYYCARSGYYGDSDWYFDVWGQGTTLTVFSTSGGGGSLESGQVLLESNIKVLPTWSTPVQPMALIVLGGVAGLLLFIGLGIFFCVRCRHRRRQAERMSQIKRLLSEKKTCQCPHRFQKTCSPI
notes: Chimeric receptor expressed on engineered human T cells (in 293TM cells for the pull-down); also called full length CD4-TAC
Does B2 bind (Her2Fc [1])?
Result: binds

B3: CD4 TAC A85V, T161P mutant (receptor)
chain: MSRGSDLGKKLLEAARAGQDDEVRILMANGADVNAKDEYGLTPLYLATAHGHLEIVEVLLKNGADVNAVDAIGFTPLHLAAFIGHLEIAEVLLKHGADVNAQDKFGKTAFDISIGNGNEDLAEILQKLNEQKLISEEDLNPGGGGGSGGGGSGGGGSGGGGSGSMDIQMTQTTSSLSASLGDRVTISCRASQDIRNYLNWYQQKPDGTVKLLIYYTSRLHSGVPSKFSGSGSGTDYSLTISNLEQEDIVTYFCQQGNTLPWTFAGGTKLEIKGGGGSGGGGSGGGGSGGGGSEVQLQQSGPELVKPGASMKISCKASGYSFTGYPMNWVKQSHGKNLEWMGLINPYKGVSTYNQKFKDKATLTVDKSSSTAYMELLSLTSEDSAVYYCARSGYYGDSDWYFDVWGQGTTLTVFSTSGGGGSLESGQVLLESNIKVLPTWSTPVQPMALIVLGGVAGLLLFIGLGIFFCVRCRHRRRQAERMSQIKRLLSEKKTCQCPHRFQKTCSPI
notes: CD4 TAC with the mutated UCHT1 domain; also called UCHT1 (A85V, T161P)
Does B3 bind (Her2Fc [2])?
Result: binds
